Measurements taken from article PMC13389190.

Key:
[1] = target: ZF-NB23
[2] = target: ZF-NB23; remark: listed apart in the source
[3] = target: ZF-NB23_D1
[4] = target: NB15_C1-T7 RNAP
[5] = target: ZF-NB23; remark: listed apart in the source

Sequence of ZF-NB23 (heavy, as listed by the source): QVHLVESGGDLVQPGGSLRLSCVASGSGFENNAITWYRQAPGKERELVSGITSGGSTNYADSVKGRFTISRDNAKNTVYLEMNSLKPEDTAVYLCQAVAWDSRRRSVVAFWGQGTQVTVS

Q: How did the MDC (minimal detectable concentration of Spike in the ZF-NB23 / NB15-T7 RNAP sensor) [1] turn out when “recombinant trimeric SARS-CoV-2 spike protein (from UniProt P0DTC2 14-1273) (natural protein)” was run?
A: 13 pM

Q: And the MDC (minimal detectable concentration of Spike in the ZF-NB23 / NB15-T7 RNAP sensor, 10% nasal swab sample) [2]?
A: 40 pM

Q: And the MDC (minimal detectable concentration of Spike in the fully de novo sensor) [3]?
A: 33.3 nM

Q: What about the MDC (minimal detectable concentration of Spike in the fully de novo sensor) [4] of the same substance?
A: 33.3 nM

Q: What about the MDC (minimal detectable concentration of Spike, trehalase / glucose read-out) [5] of the same substance?
A: 330 pM
